Test system: Escherichia coli TOP10
Test: shrunken log2 fold change of peptide-encoding DNA abundance (4.5 h post-induction vs induction); higher = less antimicrobial activity (less host growth inhibition)
Conditions: time post-induction: 4.5 h; library: site-saturation at positions 5, 18, 19, 20
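Also: peptides expressed intracellularly from a pBAD plasmid library in pooled LB shake-flask culture, induced with 0.3% L-arabinose, DNA abundance read by NGS, three biological replicates, DESeq2 with apeglm shrinkage.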

Sequence	shrunken log2 fold change
RRIRLRPPRLPRPRPRPPHNPRP	0.504
RRIRCRPPRLPRPRPRPLFNPRP	-0.665
RRIRYRPPRLPRPRPRPGHIPRP	0.0162
RRIRSRPPRLPRPRPRPRCDPRP	0.144
RRIRERPPRLPRPRPRPYETPRP	0.0614
RRIRKRPPRLPRPRPRPGKDPRP	0.173
RRIRRRPPRLPRPRPRPYELPRP	-0.297
RRIRYRPPRLPRPRPRPQWIPRP	0.00701
RRIRVRPPRLPRPRPRPKADPRP	0.0681
RRIRHRPPRLPRPRPRPYQEPRP	-0.138
RRIRFRPPRLPRPRPRPALMPRP	-0.0289
RRIRTRPPRLPRPRPRPKNWPRP	0.183
RRIRIRPPRLPRPRPRPETIPRP	-0.115
RRIRSRPPRLPRPRPRPMCIPRP	-0.0138
RRIRFRPPRLPRPRPRPRSSPRP	0.12
RRIRRRPPRLPRPRPRPLNLPRP	0.0248
RRIRFRPPRLPRPRPRPCSFPRP	-0.349
RRIRMRPPRLPRPRPRPDIIPRP	1.42
RRIRVRPPRLPRPRPRPLILPRP	-0.409
RRIRTRPPRLPRPRPRPKYTPRP	-0.508
RRIRRRPPRLPRPRPRPCMWPRP	0.313
RRIRYRPPRLPRPRPRPGEKPRP	0.0799
RRIRNRPPRLPRPRPRPFHPPRP	0.0752
RRIRGRPPRLPRPRPRPVHDPRP	-0.0619
RRIRFRPPRLPRPRPRPNTLPRP	-0.239

Sequence	shrunken log2 fold change
RRIRCRPPRLPRPRPRPYAGPRP	-0.513
RRIRKRPPRLPRPRPRPWKFPRP	0.0297
RRIRVRPPRLPRPRPRPMNVPRP	-0.0915
RRIRHRPPRLPRPRPRPGDLPRP	0.163
RRIRVRPPRLPRPRPRPLLHPRP	-0.114
RRIRNRPPRLPRPRPRPHFPPRP	-0.186
RRIRCRPPRLPRPRPRPMTSPRP	-0.0603
RRIRRRPPRLPRPRPRPATQPRP	0.691
RRIRDRPPRLPRPRPRPISLPRP	-0.0081
RRIRTRPPRLPRPRPRPDYAPRP	0.0553
RRIRFRPPRLPRPRPRPTQAPRP	0.442
RRIRQRPPRLPRPRPRPSNHPRP	-0.346
RRIRWRPPRLPRPRPRPDSDPRP	0.0473
RRIRRRPPRLPRPRPRPLSEPRP	0.382
RRIRLRPPRLPRPRPRPYHCPRP	-0.575
RRIRHRPPRLPRPRPRPTQCPRP	-0.0253
RRIRARPPRLPRPRPRPNMFPRP	-0.0712
RRIRIRPPRLPRPRPRPYFEPRP	-1.2
RRIRHRPPRLPRPRPRPAHSPRP	0.0457
RRIRGRPPRLPRPRPRPVQNPRP	0.588
RRIRVRPPRLPRPRPRPVRDPRP	0.0998
RRIRSRPPRLPRPRPRPSDCPRP	-0.79
RRIRLRPPRLPRPRPRPMQIPRP	0.057
RRIRARPPRLPRPRPRPPWGPRP	0.48
RRIRHRPPRLPRPRPRPCNAPRP	0.0746
